Data on two molecules can be found in patent CN116472284A.

The koff is a measure of how fast the partners let go of each other. Low readings indicate a long-lived complex, high ones a short-lived complex. In general, EC50 refers to the concentration needed to bring the measured effect to its halfway point. In general, IC50 refers to the concentration at which inhibition is half-maximal. High values mean lower potency, low ones higher potency. In general, Kd refers to the free concentration of one partner at which half of the binding sites on the other are occupied at equilibrium, for simple one-to-one binding. Lower therefore signals higher affinity.

In experiment [1] the target is SARS-CoV-2 spike ectodomain, prefusion-stabilised trimer (刺突 S2P) (SARS-CoV-2). The experiment can be described thus: SPR, captured spike S2P. (In general: SPR reads the build-up and loss of mass on a sensor chip optically.)
Experiment [2] has the same target. The experiment can be described thus: SPR, captured spike S2P, biphasic dissociation, fast phase kd1.
For experiment [3] the target is unchanged. The experiment can be described thus: SPR, captured spike S2P, biphasic dissociation, slow phase kd2.
For experiment [4] the target is unchanged.
The target is the same in experiment [5]. This is another data set of the same source.
Experiment [6] shares this target. The experiment can be described thus: binding kinetics (SPR), Fig. 6A.

B1: Nb6-bi (bivalent Nb6 with a 15 amino acid linker) (VHH)
chain: QVQLVESGGGLVQAGGSLRLSCAASGIIFGRNAMGWYRQAPGKERELVAGITRRGSITYYADSVKGRFTISRDNAKNTVYLQMNSLKPEDTAVYYCAADPASPAPGDYWGQGTQVTVSSGGGGSGGGGSGGGGSQVQLVESGGGLVQAGGSLRLSCAASGIIFGRNAMGWYRQAPGKERELVAGITRRGSITYYADSVKGRFTISRDNAKNTVYLQMNSLKPEDTAVYYCAADPASPAPGDYWGQGTQVTVSS
Molecule B1 had a fold gain in KD against monovalent Nb6 in experiment [1] of 750 fold. For the same molecule, the koff in experiment [2] was found to be 0.027 s⁻¹; in experiment [3] it was 0.00031 s⁻¹.

B2: Nb6 (VHH)
VHH: QVQLVESGGGLVQAGGSLRLSCAASGIIFGRNAMGWYRQAPGKERELVAGITRRGSITYYADSVKGRFTISRDNAKNTVYLQMNSLKPEDTAVYYCAADPASPAPGDYWGQGTQVTVSS
Regarding B2, the half-maximal effective concentration (EC50) in experiment [4] was 359 nM. In addition, the concentration for half-maximal inhibition (IC50) in experiment [5] came out at 370 nM. In experiment [1], this molecule showed a Kd of 210 nM and a koff of 0.056 s⁻¹. Besides, the Kd in experiment [6] is 210 nM.
